Experimental findings from patent publication US20250011363A1, “OPTIMIZED SHORTENED PEPTIDE THAT BINDS TO ACETYLCHOLINE RECEPTOR, AND USE THEREOF” (SKINMED CO., LTD., priority 2021, published 2025) are described below.

The assay has as its target acetylcholine receptor. In words: SPR, peptide at 10 uM over immobilized acetylcholine receptor. (In general: Surface plasmon resonance follows binding to a sensor surface in real time, without labels.)

Take KRVYRK [6mer-2-121]: the Binding affinity (RU) was 137 RU.
Then RQFYRK [6mer-2-97], with 154 RU.
In the case of RRQQRR [6mer-2-98] it was 148 RU; in that of KVQLRR [6mer-2-125], 142 RU.
On to KLQRKK [6mer-2-116], for which the Binding affinity (RU) is 126 RU.
As for KRYSRK [6mer-2-113], the Binding affinity (RU) stood at 145 RU.
In the case of KWFSRR [6mer-2-118] it was 135 RU; in that of RGVYRK [6mer-2-107], 144 RU; in that of RRRCRR [6mer-2-100], 142 RU.
In turn, KSRSKK [6mer-2-89] had a Binding affinity (RU) of 141 RU.
Take RVITKK [6mer-2-122]: the Binding affinity (RU) turned out to be 125 RU.
In the case of RLQQKR [6mer-2-112] it was 142 RU.
Then RGFTRR [6mer-2-105], with 151 RU; and RRQCRK [6mer-2-120], with 146 RU.
Then KWQLKR [6mer-2-124], with 126 RU; and RRVYRK [6mer-2-109], with 144 RU; and KGRTKR [6mer-2-90], with 133 RU.
Consider RLYQRK [6mer-2-94], for which the Binding affinity (RU) was 126 RU.
As to RGVCRK [6mer-2-104], the Binding affinity (RU) came out at 145 RU.
Then RGVCRR [6mer-2-130], with 122 RU; and KWRQRK [6mer-2-96], with 154 RU.
In the case of KWIYKR [6mer-2-91], the Binding affinity (RU) was found to be 121 RU.
Then RWQTRR [6mer-2-93], with 133 RU; and RQRSRR [6mer-2-99], with 151 RU.
Then KLQYRK [6mer-2-114], with 121 RU.
In the case of KWLYRR [6mer-2-126] it was 148 RU.
RWVQRK [6mer-2-106] had a Binding affinity (RU) of 123 RU.
In the case of KSQLKK [6mer-2-110] it was 153 RU; in that of KSYYRR [6mer-2-128], 147 RU; in that of RSISKK [6mer-2-119], 139 RU.
The molecule RLYLRK [6mer-2-127] came in with a Binding affinity (RU) of 136 RU.
Then RVVYKK [6mer-2-108], with 153 RU; and KWQYRK [6mer-2-115], with 144 RU.
Then KLYCKK [6mer-2-132], with 139 RU; and RRIYRK [6mer-2-95], with 142 RU.
In the case of KSQYKR [6mer-2-85] it was 137 RU; in that of KSFQRR [6mer-2-88], 141 RU; in that of RVVTKK [6mer-2-103], 136 RU.
KQRYKK [6mer-2-84] returned a Binding affinity (RU) of 139 RU.
Take KQQTKR [6mer-2-131]: the Binding affinity (RU) is 148 RU.
Then RLICRK [6mer-2-101], with 154 RU; and RRLTKR [6mer-2-87], with 142 RU.
The molecule KRRLKK [6mer-2-133] returned a Binding affinity (RU) of 145 RU.
Turning to RLFQRK [6mer-2-134], the Binding affinity (RU) is 148 RU.
In the case of KRYTRK [6mer-2-117] it was 148 RU.
On to KSVLRK [6mer-2-129], for which the Binding affinity (RU) was 139 RU.
Take KLIRRK [6mer-2-111]: the Binding affinity (RU) stood at 123 RU.
The molecule KVYQKK [6mer-2-102] gave a Binding affinity (RU) of 139 RU.
In the case of KVVCKR [6mer-2-92] it was 131 RU.
Then RQFTKR [6mer-2-123], with 146 RU.
In the case of KQFRRK [6mer-2-86] it was 126 RU.
